Assays:
LrpA1 = LrpA1 (Halobacterium salinarum, UniProt B0R4X4); assay: analytical DNA-affinity chromatography with aspB3 promoter, SDS-PAGE densitometry; type: biochemical; conditions: 5 mM L-aspartate; 3 M KCl, 1 M NaCl, 5 mM MgCl2, 10 mM HEPES, pH 7.1; room temperature, 4 h; effector of DNA binding, indirect read-out
[1] = target: T1, LrpA1 (Halobacterium salinarum R1) (UniProt B0R4X4); assay: DNA-affinity chromatography (pull-down), SDS-PAGE densitometry; conditions: CFE buffer: 3 M KCl, 1 M NaCl, 5 mM MgCl2, 10 mM HEPES pH 7.1; room temperature, 4 h; 2 nmol LrpA1, 61 pmol biotinylated DNA; elution with 1% SDS
T1 sequence: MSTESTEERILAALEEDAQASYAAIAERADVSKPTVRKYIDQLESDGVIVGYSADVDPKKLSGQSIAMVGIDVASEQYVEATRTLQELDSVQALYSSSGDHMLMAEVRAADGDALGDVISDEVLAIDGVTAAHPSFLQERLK

[2] = test system: LrpA1 (Halobacterium salinarum R1); assay: as above; conditions: CFE buffer: 3 M KCl, 1 M NaCl, 5 mM MgCl2, 10 mM HEPES pH 7.1, room temperature, 4 h, 2 nmol LrpA1, 61 pmol biotinylated DNA
[3] = target: the molecule itself; assay: SEC; Superdex 200 3.2/3 column on a SMART device, 50 ul per min, CFE buffer (3 M KCl; 1 M NaCl; 10 mM HEPES, pH 7.1); LrpA1-His6 after renaturation; monomer to dimer

## N[C@@H](CC(=O)O)C(=O)O [L-aspartate]
LrpA1
  relative binding efficiency to aspB3-Pincl DNA: resulting in significantly enhanced binding of LrpA1 to the aspB3Pincl sequence

## ACGACACCGGGTCGTTTTGATTGTCGGCTACGTGTCGCAGTGTTGGCGGTAGCGCCGCTCCAACGGTGGTTCCGTGGCGTTCCGCTGTCGGTTGACGATTCGGAAGATACCCTTTCACACGAACCCCCTATCCTGACGTGAGCACTGAATCGACAGAAGAGCGAATCCTCGCCGCGCTCGAAGAGGACGCGCAAGCGTCGTATGCGGCCATCGCGGAGCGTGCGGACGTCTCCA (double strand) [lrpA1-Pincl (mutated)]
[1]
  binding signal (% of lrpA1-Pincl): 24

## ACGACACCGGGTCGTTTTGATTGTCGGCTACGTGTCGCAGTGTTGGCGGTAGCGCCGCTCCAACGGTGGTTCCGTGGCGTTCCGCTGTCGGTTGACGATTCGGAAGATATTTTTTCACACGAACCAAATATCCTGACGTGAGCACTGAATCGACAGAAGAGCGAATCCTCGCCGCGCTCGAAGAGGACGCGCAAGCGTCGTATGCGGCCATCGCGGAGCGTGCGGACGTCTCCA (double strand) [lrpA1-Pincl]
[1]
  binding signal (% band density): 100

## ATCGCGCTTGAACGTCTGCATACGTCCGCTACGCACCAGGCGCGCAAAACTTCAGGGGGTTCGGGACCCGCGGGTTGTGCCGTGATAGCACACGCGTCCCGCAGGAACGATTATGAGGGATGGCCGCGATCCTGCTGGCATGCCTTCGGAGCGCGCGGCTGCGGTCACGCCGTTCGCCGCGATGGATGTCCTCGAACGCGCCGCCGAC (double strand) [aspB3-Pincl]
[1]
  binding signal (% band density): 100

## aspB3-Pincl
[2]; 5 mM L-arginine, text: binding not enhanced by arginine, elution with 1% SDS
  binding signal (% band density): 100
[2]; 5 mM L-aspartate, elution with 1% SDS
  binding signal (% band density): 100
[2]; no amino acid (arginine experiment), elution with 1% SDS
  binding signal (% of aspB3-Pincl + 5 mM Arg): 77
[2]; no amino acid (aspartate experiment), elution with 1% SDS
  binding signal (% of aspB3-Pincl + 5 mM Asp): 34

## flgB1 control DNA
[2]; 5 mM L-arginine, non-specific background, elution with 1% SDS
  binding signal (% of aspB3-Pincl + 5 mM Arg): 30
[2]; 5 mM L-aspartate, non-specific background, elution with 1% SDS
  binding signal (% of aspB3-Pincl + 5 mM Asp): 7
[2]; no amino acid, non-specific background, elution with 1% SDS
  binding signal (% of lrpA1-Pincl): 37

## lrpA1-Pincl
[2]; no amino acid, elution with 1% …
  binding signal (% band density): 100

B1: H. salinarum LrpA1 (OE2621R), His6-tagged (natural protein, Halobacterium salinarum R1, UniProt B0R4X4 1-142, looked up)
chain: MSTESTEERILAALEEDAQASYAAIAERADVSKPTVRKYIDQLESDGVIVGYSADVDPKKLSGQSIAMVGIDVASEQYVEATRTLQELDSVQALYSSSGDHMLMAEVRAADGDALGDVISDEVLAIDGVTAAHPSFLQERLK
notes: Leucine-responsive regulatory protein homologue LrpA1 of Halobacterium salinarum R1, locus OE2621R; theoretical size of the monomer 15.2 kDa; amplified by PCR and cloned NdeI/XhoI into pET26b; the cloning primers are in additional file 10; also called LrpA1-His6; transcription regulator LrpA1; source: E. coli BL21(DE3), pET26b; purified on Ni-NTA in 8 M urea, renatured by dialysis against high …
[3]
  stoichiometry N: 2
